Results on one molecule are retold here after paper PMC12443476 (eLife, 2025).

This assay has as its target T1, biotinylated Tom70 (109-600) with N-terminal AVI tag (human, UniProt O94826 109-600, biotin (AVI tag, by co-expressed BirA)).
T1 construct: also called biotin-Tom70; immobilized Tom70
T1 sequence: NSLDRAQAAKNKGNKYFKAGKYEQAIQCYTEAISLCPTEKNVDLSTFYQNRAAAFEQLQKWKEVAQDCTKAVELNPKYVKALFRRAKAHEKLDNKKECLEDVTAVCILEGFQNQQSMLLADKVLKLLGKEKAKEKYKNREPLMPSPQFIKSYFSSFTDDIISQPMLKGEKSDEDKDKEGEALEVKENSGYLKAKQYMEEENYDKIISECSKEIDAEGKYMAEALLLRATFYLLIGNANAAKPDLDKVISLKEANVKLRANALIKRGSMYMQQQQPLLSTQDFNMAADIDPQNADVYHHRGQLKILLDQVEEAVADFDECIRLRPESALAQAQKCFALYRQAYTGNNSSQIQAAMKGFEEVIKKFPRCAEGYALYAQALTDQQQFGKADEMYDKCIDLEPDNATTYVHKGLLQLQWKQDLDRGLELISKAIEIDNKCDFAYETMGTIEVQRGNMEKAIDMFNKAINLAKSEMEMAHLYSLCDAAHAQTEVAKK
The assay is described as follows: SPR. The conditions noted are these: both partners purified.

Consider IILRLGSPLSLNMARKALNSLEDKAFQ [Orf9b T60A peptide], for which the binding result is “binds”.
